This note sets out measurements from US20200040103A1.

Assay [1] concerns the target recombinant human KLK5 (human) (UniProt Q9Y337). Description: Kiapp as the y-intercept of the line of IC50 (nM) versus KLK5 (nM), Z-VPR-pNA.
Assay [2] has the same target. Description: Kiapp, KLK5 0.5-0.0625 nM, Z-VPR-pNA.
The target is the same in assay [3]. Nature of the assay: pro-KLK1 coupled assay, 0.5 nM KLK5, 31.25 nM pro-KLK1, PFR-AMC.
Assay [4] shares this target. Nature of the assay: pro-KLK1 coupled assay, 0.5 nM KLK5.
For assay [5] the target is unchanged. Description: Kiapp assay curve, 0.250 nM KLK5, Z-VPR-pNA.
For assay [6] the target is unchanged. Description: pro-KLK7 coupled assay, 5 nM KLK5.
Assay [7] has the same target. Description: pro-KLK1 LC/MS assay, 0.5 nM KLK5.
Assay [8] shares this target. Description: pro-KLK7 LC/MS assay, 5 nM KLK5.
For assay [9] the target is unchanged. Nature of the assay: pro-KLK7 LC/MS assay, 5 nM KLK5, 15 nM pro-KLK7; box prints neither IC50 nor a unit, IC50 in nM per text.
The target is the same in assay [10]. Description: SPR BIAcore T200, antibody captured by anti-human Fc, human KLK5 as analyte, 37 C. (SPR reads the build-up and loss of mass on a sensor chip optically.)
The target is the same in assay [11]. Description: direct activity assay, 5 nM KLK5, Boc-VPR-AMC.
For assay [12] the target is unchanged. Description: Kiapp assay curve, 0.500 nM KLK5, Z-VPR-pNA.
The target is the same in assay [13]. Nature of the assay: Kiapp assay curve, 0.125 nM KLK5, Z-VPR-pNA.
For assay [14] the target is unchanged. Nature of the assay: pro-KLK1 LC/MS assay, 0.5 nM KLK5, 300 nM pro-KLK1; single value in the box; unit inferred, nM.
Assay [15] has the same target. Description: KLK5 direct activity assay, 5 nM KLK5, Boc-VPR-AMC.
Assay [16] has as its target recombinant human KLK5 (human), Q9Y337. Nature of the assay: cell-based or functional assay.
In assay [17] the target is recombinant human KLK5 (human) (UniProt Q9Y337). Nature of the assay: array SPR imaging (IBIS MX96), antibody amine-coupled, human KLK5 injected 0-300 nM, 25 C.
Chain of recombinant human KLK5 (human) (Q9Y337 67-293): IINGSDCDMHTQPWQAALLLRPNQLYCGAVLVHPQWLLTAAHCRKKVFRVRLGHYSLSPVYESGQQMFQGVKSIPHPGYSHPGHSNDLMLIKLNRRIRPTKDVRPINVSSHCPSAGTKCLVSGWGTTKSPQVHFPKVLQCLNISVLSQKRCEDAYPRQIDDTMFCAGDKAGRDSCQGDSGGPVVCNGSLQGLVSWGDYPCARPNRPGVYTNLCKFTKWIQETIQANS
Assay [18] has the same target. Description: cell-based or functional assay.
The target is the same in assay [19]. Nature of the assay: pro-KLK1 LC/MS assay, 0.5 nM KLK5, 300 nM pro-KLK1; box column 2 of 3; no unit printed, nM per text.
Assay [20] has the same target. Nature of the assay: pro-KLK7 coupled assay, 5 nM KLK5, 125 nM pro-KLK7, suc-LLVY-AMC.
The target is the same in assay [21]. Description: Kiapp assay curve, 0.063 nM KLK5, Z-VPR-pNA.
For assay [22] the target is unchanged. Nature of the assay: pro-KLK1 LC/MS assay, 0.5 nM KLK5, 300 nM pro-KLK1; box column 3 of 3; no unit printed, nM per text.
Assay [23] shares this target. Nature of the assay: pro-KLK1 LC/MS assay, 0.5 nM KLK5, 300 nM pro-KLK1; box column 1 of 3; no unit printed, nM per text.
The target is the same in assay [24]. Description: pro-KLK7 LC/MS assay, 5 nM KLK5, 15 nM pro-KLK7, nM.

Positions count from the first letter of the chain named.

Chain of recombinant human KLK5 (human), Q9Y337 (Q9Y337 67-293): as above

B1: 3-3F5 (antibody, V domains shown)
VH: QSVKESEGGLFKPTDTLTLTCTVSGFSLNDYGVSWVRQAPGNGLEWIGAIGSSGVAWYANWAKGRSTITRNTNLNTVTLKMASLTAADTATYFCARDRDYGYRADDATSGMDLWGPGTLVTVSS
VL: AYDMTQTPASVEAAVGGTVTIKCQASESIGNALAWYQQKPGQPPKLLIYDASDLASGVPSRFKGSGSGTQFTLTISGVECADAATYYCQQGDSHNNVDNIFGGGTEVVVK
As to B1, the Ki in [1] was 0.0081 nM; in assay [2], below 0.01 nM. The IC50 (read off the curve) in assay [3] is 0.1 to 0.2 nM; in assay [5], 0.07 nM; in assay [12] it was 0.1 nM; in assay [13], 0.04 nM; in assay [15] it was 1 to 2 nM. Further, the IC50 is 0.14 nM in assay [4]; 1.53 nM in assay [6]; 0.15 nM in [7]; 1.44 nM in assay [8]; 1.44 nM in [9]; 1.32 nM in [11]. The 50% inhibitory concentration (IC50) in assay [14] amounted to 0.152 nM. The Kd in assay [10] was below 0.001 nM. The koff in assay [10] is below 1e-05 s⁻¹. Besides, the kon in assay [10] is 2.93e+07 M⁻¹ s⁻¹.

B2: 12B3 (antibody, V domains shown)
VH: QSLEESGGGLVKPGGTLTLTCKASGIDFNGGGIYWVRQAPGKGLEWIASIYPDHGSVDYANWVNGRFTISLDNAQNTVFLQLTSLTVADTATYFCARESGGSYYDLWGPGTLVTVSS
VL: AYDMTQTPASVEVAVGGTVTIKCQASQSISTYLAWYQQKPGQRPNLLIYKTSTLASGVPSRFRGSGSGTQFTLTISGVECADAATYYCQQGYSGSSVENTFGGGTEVVVK
Consider B2, for which the inhibition of human KLK5 (screening) in assay [16] was below 50%.

B3: 1D10 (antibody, V domains shown)
VH: B2 VH with K22T, I26F, S49Y, V57A, N61T, L82M, S99T, Y103W
VL: AYDMTQTPVSVEAAVGGTVTIKCQASQSISSYLAWYQQKPGQPPKLLIYKASTLASGVSSRFKGSGSGTEFTLTISDLECADAATYYCQQGYSGSNVENTFGGGTEVVVK
For the molecule B3, the inhibition of human KLK5 (screening) in [16] was below 50%.

B4: 14E12 (antibody, V domains shown)
VH: EVQLVESGGGLVRPGRSLRLSCAASGFTFSDYYMAWVRQAPTKGLEWVASISYDGDTTYYRDSVKGRFTISRDNARSSLYLQMDSLRSDDTANYFCTTDGTIPAGSWFAYWGQGTLVTVSS
VL: DIQMTQSPASLSASLGETVTIECLASKNIYRNLAWYQQKPGKSPQFLISDASRLQDGVPSRFTGSDSGSQYSLKINSLQSEDVATYFCQQYHDYPYTFGAGTKLELK
B4: the off-rate (koff) in assay [17] turned out to be 0.000414 s⁻¹. Moreover, in [18], the inhibition of human KLK5 (screening) was below 90%.

B5: 8E11 (antibody, V domains shown)
VH: QEQLEESGGDLVKPEGSLTLTCTASGFSFSSSYWICWVRQAPGKGLEWIACVYGLDVNIYYASWTKGRFTISKTSSTTVTLQMTSLTAADTATYFCARGGGSADFGFDLWGPGTLVTVSS
VL: DVVMTQTASPVSAAVGGTVTIKCQASENIYSLLAWYQQKPGQPPKVLIYDASDLASGVPSRFKGSGSGTQFTLTISDLECADAATYYCQATAYGSSGNAFGGGTEVVVK
With B5, the koff in assay [17] is 0.000202 s⁻¹. Also, in [18], the inhibition of human KLK5 (screening) is below 90%.

B6: 14C8 (antibody, V domains shown)
VH: EVQLVESGGGLVQPGRSLKLSCTASGFTFSDYNMAWVRQAPKGGLEWVTTISYDAGRTYYRDSVKGRFTISRDNAKRTLSLQMDSLRSEDTATYYCATGIFNYGTDYFDYWGQGVMVTVSS
VL: DIQMTQSPASLSASLGETVTIQCRASEDIYSGLAWYQQKPGKSPQLLIYGATTLHDGVPSRFSGSGSGTQYSLKISSMHSEDEGIYFCHQGLSFPYTFGAGTKLELK
With B6, the koff in assay [17] came out at 0.000376 s⁻¹. In assay [18], the inhibition of human KLK5 (screening) is below 90%.

B7: 9H5 (antibody, V domains shown)
VH: QSVKESEGGLFKPTDNLTLTCTVSGFSLSSYGVSWVRQAPGNGLEYIGFIGSGGFAYYASWAKSRSTITRNTNLNTVTLKMTSLTAADTATYFCARDDVGGGKSLDIWGPGTVVTVSV
VL: NIVMTQTPASVEAAVGGTVTINCQASQSISSYLSWYQQKSGQRPKLLIFSASTLASGVPSRFTGSGSGTQFTLTISDLQCADAATYYCHQDYTSSNVDNTFGGGTEVVVK
On to B7, for which the half-inhibitory concentration (IC50) was 0.343 nM in [19]; 0.102 nM in assay [22]; 0.139 nM in assay [4]; 0.87 nM in assay [6]; 0.19 nM in [7]; 0.138 nM in assay [23]. Besides, the IC50 is 1.68 nM in assay [24], 1.68 nM in [8] and 1.08 nM in [11]. Moreover, the Ki in assay [1] worked out at 0.402 nM; in assay [2], 0.425 nM. Besides, the IC50 (read off the curve) was 0.8 nM in assay [20]; 0.2 nM in assay [21]; 0.1 to 0.2 nM in [3]; 0.2 nM in assay [5]; 0.3 nM in [12]; 0.2 nM in assay [13]. Further, the IC50 (read off the curve) in assay [15] came out at 0.8 nM. For the same molecule, the values for the koff in [17] and in assay [10] were 0.000367 s⁻¹ and 0.000137 s⁻¹, respectively. In addition, in [10], the Kd was found to be 0.193 nM. In addition, the kon in assay [10] is 705000 M⁻¹ s⁻¹.

What is called IC50 is the midpoint of a concentration-inhibition curve. A word on the Kd: it is the concentration at which binding is half-saturated. The koff is the rate constant with which the complex falls apart. In general, kon refers to the rate constant with which the complex forms.
